# Test results as given in article PMC9622684, “Characterization of an Escherichia coli-derived triple-type chimeric vaccine against human papillomavirus types 39, 68 and 70” (NPJ Vaccines, 2022).
# Tests used:
# [1] = biological target: HPV68 L1 (0–505 aa), wild-type L1-only virus-like particle (human papillomavirus type 68); test: cryo-EM structure; VLPs (~2.0 mg/mL) vitrified on Quantifoil grids; icosahedral 3D reconstruction (AUTO3DEM or cisTEM)
# [2] = biological target: the molecule itself; test: as above
Molecule,stoichiometry N [1] [pentamers],stoichiometry N [2] [pentamers]
"HPV68 L1 (0–505 aa), wild-type L1-only virus-like particle (natural protein)",72,–
"HPV39 L1 (15–505 aa), wild-type L1-only virus-like particle (domain or fragment, Major capsid protein L1 of human papillomavirus type 39, residues 15-505 as printed; chosen from full-length and 5-, 10-, 15-aa N-terminal truncations; Non-fusion expression, no tag; Copies: 72 pentamers (T = 7 capsid) as printed, i.e. 360 chains; also called WT HPV39; HPV39 VLP; source: E. coli ER2566 (pTO-T7), purified (SP or XS sepharose; self-assembly on removal of DTT, Superdex 200); copies: …) PPSVAKVVNTDDYVTRTGIYYYAGSSRLLTVGHPYFKVGMNGGRKQDIPKVSAYQYRVFRVTLPDPNKFSIPDASLYNPETQRLVWACVGVEVGRGQPLGVGISGHPLYNRQDDTENSPFSSTTNKDSRDNVSVDYKQTQLCIIGCVPAIGEHWGKGKACKPNNVSTGDCPPLELVNTPIEDGDMIDTGYGAMDFGALQETKSEVPLDICQSICKYPDYLQMSADVYGDSMFFCLRREQLFARHFWNRGGMVGDAIPAQLYIKGTDIRANPGSSVYCPSPSGSMVTSDSQLFNKPYWLHKAQGHNNGICWHNQLFLTVVDTTRSTNFTLSTSIESSIPSTYDPSKFKEYTRHVEEYDLQFIFQLCTVTLTTDVMSYIHTMNSSILDNWNFAVAPPPSASLVDTYRYLQSAAITCQKDAPAPEKKDPYDGLKFWNVDLREKFSLELDQFPLGRKFLLQARVRRRPTIGPRKRPAASTSSSSATKHKRKRVSK",–,72
"HPV70 L1 (10–506 aa), wild-type L1-only virus-like particle (domain or fragment, human papillomavirus type 70, UniProt P50793 10-504, looked up, Major capsid protein L1 of human papillomavirus type 70, residues 10-506 as printed; chosen from full-length and 5-, 10-, 15-aa N-terminal truncations; Non-fusion expression, no tag; Copies: 72 pentamers (T = 7 capsid) as printed, i.e. 360 chains; also called WT HPV70; HPV70 VLP; source: E. coli ER2566 (pTO-T7), purified (SP or XS sepharose; self-assembly on removal of DTT, Superdex 200); copies: …) TVYLPPPSVAKVVNTDDYVTRTGIYYYAGSSRLLTVGHPYFKVPVNGGRKQEIPKVSAYQYRVFRVSLPDPNKFGLPDPSLYNPDTQRLVWACIGVEIGRGQPLGVGVSGHPLYNRLDDTENSHFSSAVSTQDSRDNVSVDYKQTQLCIIGCVPAMGEHWAKGKACKSTQQGDCPPLELVNTAIEDGDMIDTGYGAMDFRTLQETKSEVPLDICQSVCKYPDYLQMSADVYGDSMFFCLRKEQLFARHFWNRGGMVGDTIPSELYIKGTDIRERPGTHVYSPSPSGSMVSSDSQLFNKPYWLHKAQGHNNGICWHNQLFITVVDTTRSTNFTLSACTETAIPAVYSPTKFKEYTRHVEEYDLQFIFQLCTITLTADVMAYIHTMNPAILDNWNIGVTPPPSASLVDTYRYLQSAAIACQKDAPTPEKKDPYDDLKFWNVDLKEKFSTELDQFPLGRKFLLQVGARRRPTIGPRKRPASAKSSSSASKHKRKRVSK",–,72
